The source of these data is article PMC11344481 (Journal of proteome research, 2024).

Series [1] concerns the target malate dehydrogenase (human (endogenous in heart tissue)) (UniProt P40925). The series can be described thus: native MS.
Series [2] concerns the molecule itself. The series can be described thus: native MS.

With “malate dehydrogenase (from UniProt P40925 1-334) (enzyme)”, in series [1], the stoichiometry N (as a rule, the number of molecules, sites or subunits per partner or assembly) was 2.

B1: S100-A1 (natural protein, human (endogenous in heart tissue), UniProt P23297 2-94, looked up)
chain: GSELETAMETLINVFHAHSGKEGDKYKLSKKELKELLQTELSGFLDAQKDVDAVDKVMKELDENGDGEVDFQEYVVLVAALTVACNNFFWENS
modifications: N-terminal methionine removed and N-terminus acetylated (primary proteoform)
Take B1: in series [2], the “stoichiometry N” value was determined as 2.
